B1: Rab proteins geranylgeranyltransferase component A 1 (Homo sapiens), P24386 (parent)
chain: MADTLPSEFDVIVIGTGLPESIIAAACSRSGRRVLHVDSRSYYGGNWASFSFSGLLSWLKEYQENSDIVSDSPVWQDQILENEEAIALSRKDKTIQHVEVFCYASQDLHEDVEEAGALQKNHALVTSANSTEAADSAFLPTEDESLSTMSCEMLTEQTPSSDPENALEVNGAEVTGEKENHCDDKTCVPSTSAEDMSENVPIAEDTTEQPKKNRITYSQIIKEGRRFNIDLVSKLLYSRGLLIDLLIKSNVSRYAEFKNITRILAFREGRVEQVPCSRADVFNSKQLTMVEKRMLMKFLTFCMEYEKYPDEYKGYEEITFYEYLKTQKLTPNLQYIVMHSIAMTSETASSTIDGLKATKNFLHCLGRYGNTPFLFPLYGQGELPQCFCRMCAVFGGIYCLRHSVQCLVVDKESRKCKAIIDQFGQRIISEHFLVEDSYFPENMCSRVQYRQISRAVLITDRSVLKTDSDQQISILTVPAEEPGTFAVRVIELCSSTMTCMKGTYLVHLTCTSSKTAREDLESVVQKLFVPYTEMEIENEQVEKPRILWALYFNMRDSSDISRSCYNDLPSNVYVCSGPDCGLGNDNAVKQAETLFQEICPNEDFCPPPPNPEDIILDGDSLQPEASESSAIPEANSETFKESTNLGNLEESSE
partner: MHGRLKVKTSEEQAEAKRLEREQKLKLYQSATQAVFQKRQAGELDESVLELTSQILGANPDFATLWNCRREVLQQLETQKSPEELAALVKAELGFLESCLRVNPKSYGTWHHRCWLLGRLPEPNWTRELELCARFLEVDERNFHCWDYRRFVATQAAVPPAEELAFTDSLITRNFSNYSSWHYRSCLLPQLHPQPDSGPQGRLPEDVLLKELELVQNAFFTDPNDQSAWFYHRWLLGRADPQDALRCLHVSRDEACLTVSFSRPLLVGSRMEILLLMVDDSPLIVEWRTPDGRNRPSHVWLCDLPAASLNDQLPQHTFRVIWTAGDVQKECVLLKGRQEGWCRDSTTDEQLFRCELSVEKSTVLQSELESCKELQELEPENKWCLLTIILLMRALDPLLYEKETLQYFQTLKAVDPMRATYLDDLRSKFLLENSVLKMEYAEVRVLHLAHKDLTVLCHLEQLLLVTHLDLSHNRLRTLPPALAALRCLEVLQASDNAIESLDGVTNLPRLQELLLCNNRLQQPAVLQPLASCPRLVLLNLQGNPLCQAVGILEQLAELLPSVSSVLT

Variants of: B1
Settings: with pgta_human RABGGTA

Variant	effect of a mutation on the interaction
H507R	disrupting interaction

Reference: IntAct's records for PubMed 21905166
